Test [1] deals with human ABCA1 transporter (ATP-binding cassette transporter A1) (human) (UniProt O95477). As to the kind of experiment: 125I-L-37pA (1 µg/ml, 1 hour, 4° C.) bound to ABCA1-transfected HeLa cells, no competitor.
Test [2] shares this target. The test can be described thus: cell-based or functional assay.
Test [3] shares this target. The test can be described thus: two-step sequential competition on ABCA1-transfected HeLa cells; competitor at 8 µM, tracer 125I-L-37pA.

“And” between values parts separate entries of the source, which are not always exact repeats. Equal entries are not always repeated. Where no end group is shown, it is not given here.

UniProt O95477, sequence (O95477 whole entry): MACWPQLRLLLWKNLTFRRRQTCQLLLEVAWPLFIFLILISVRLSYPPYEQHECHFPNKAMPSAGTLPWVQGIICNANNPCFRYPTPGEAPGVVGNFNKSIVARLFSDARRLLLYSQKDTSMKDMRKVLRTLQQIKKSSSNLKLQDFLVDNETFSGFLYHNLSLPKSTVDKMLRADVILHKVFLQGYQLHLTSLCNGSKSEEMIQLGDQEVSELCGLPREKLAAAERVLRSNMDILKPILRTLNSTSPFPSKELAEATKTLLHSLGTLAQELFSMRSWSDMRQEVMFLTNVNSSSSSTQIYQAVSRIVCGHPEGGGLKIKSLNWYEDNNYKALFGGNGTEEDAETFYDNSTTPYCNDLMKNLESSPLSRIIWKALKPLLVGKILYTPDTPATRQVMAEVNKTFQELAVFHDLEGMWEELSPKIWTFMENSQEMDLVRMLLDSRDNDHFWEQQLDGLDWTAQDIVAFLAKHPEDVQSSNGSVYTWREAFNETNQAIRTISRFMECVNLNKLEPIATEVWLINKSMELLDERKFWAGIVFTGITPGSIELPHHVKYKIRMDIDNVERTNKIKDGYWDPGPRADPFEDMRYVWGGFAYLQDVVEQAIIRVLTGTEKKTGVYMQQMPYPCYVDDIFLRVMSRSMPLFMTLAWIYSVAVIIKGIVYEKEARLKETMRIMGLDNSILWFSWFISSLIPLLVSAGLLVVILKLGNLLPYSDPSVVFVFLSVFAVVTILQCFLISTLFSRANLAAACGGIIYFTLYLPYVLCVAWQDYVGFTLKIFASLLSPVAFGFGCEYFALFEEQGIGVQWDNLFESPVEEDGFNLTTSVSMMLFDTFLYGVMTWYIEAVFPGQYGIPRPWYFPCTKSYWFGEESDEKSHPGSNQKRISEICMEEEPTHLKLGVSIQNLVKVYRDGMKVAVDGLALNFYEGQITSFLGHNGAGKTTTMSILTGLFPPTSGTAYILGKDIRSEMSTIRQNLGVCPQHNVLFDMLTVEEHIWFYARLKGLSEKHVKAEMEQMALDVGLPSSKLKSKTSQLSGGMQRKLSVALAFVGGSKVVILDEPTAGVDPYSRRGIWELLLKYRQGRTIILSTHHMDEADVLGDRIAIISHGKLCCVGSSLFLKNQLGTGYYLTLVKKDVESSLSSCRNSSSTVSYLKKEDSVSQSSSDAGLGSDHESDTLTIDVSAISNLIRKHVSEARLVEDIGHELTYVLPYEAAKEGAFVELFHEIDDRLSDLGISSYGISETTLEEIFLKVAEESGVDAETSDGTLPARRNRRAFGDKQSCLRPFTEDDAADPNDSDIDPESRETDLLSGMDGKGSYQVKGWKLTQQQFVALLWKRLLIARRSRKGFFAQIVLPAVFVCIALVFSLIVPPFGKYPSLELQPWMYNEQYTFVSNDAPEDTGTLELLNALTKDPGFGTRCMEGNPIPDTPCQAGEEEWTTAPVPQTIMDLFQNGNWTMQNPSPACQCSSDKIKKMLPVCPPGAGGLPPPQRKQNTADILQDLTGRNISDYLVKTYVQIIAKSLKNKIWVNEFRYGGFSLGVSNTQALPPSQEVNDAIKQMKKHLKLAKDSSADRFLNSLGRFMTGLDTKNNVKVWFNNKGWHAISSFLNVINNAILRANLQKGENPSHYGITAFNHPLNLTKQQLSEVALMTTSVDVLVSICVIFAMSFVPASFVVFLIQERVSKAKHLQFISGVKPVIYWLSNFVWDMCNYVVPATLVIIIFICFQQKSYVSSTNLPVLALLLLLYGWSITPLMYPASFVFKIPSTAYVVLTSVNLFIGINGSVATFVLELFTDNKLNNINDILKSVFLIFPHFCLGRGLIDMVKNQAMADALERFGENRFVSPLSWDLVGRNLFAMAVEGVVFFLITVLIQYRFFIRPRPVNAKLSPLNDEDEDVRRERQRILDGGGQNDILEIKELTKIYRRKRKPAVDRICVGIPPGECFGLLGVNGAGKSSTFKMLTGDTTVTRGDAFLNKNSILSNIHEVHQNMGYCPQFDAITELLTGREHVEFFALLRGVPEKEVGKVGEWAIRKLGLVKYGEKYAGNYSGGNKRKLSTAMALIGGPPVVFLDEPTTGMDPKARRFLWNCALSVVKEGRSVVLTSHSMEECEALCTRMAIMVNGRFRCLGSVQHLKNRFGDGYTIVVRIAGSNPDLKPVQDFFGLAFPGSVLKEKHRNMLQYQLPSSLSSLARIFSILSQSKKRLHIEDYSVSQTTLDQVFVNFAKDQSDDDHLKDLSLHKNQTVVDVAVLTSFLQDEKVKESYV

B1: L-37pA peptide (peptide)
peptide: DWLKAFYDKVAEKLKEAFPDWLKAFYDKVAEKLKEAF
modifications: also: tracer form 125I-labelled with iodine monochloride
The molecule B1 registered a cell-bound radiolabeled peptide in the absence of a competitor (pmol/mg cell protein) in test [1] of 35. Further, in test [2], the cholesterol and phospholipid efflux, ABCA1 cells against control cells is 2 fold and 4 fold; the concentration at which lipid efflux begins to show saturation turned out to be 2 µM. Besides, the percent of labeled L-37pA binding blocked in test [3] stood at 40%.
